Assay results from patent publication US20260365740 (published 2026).
Changes are numbered by the printed parent chain. Read-outs that look alike come from different tables or passages of the source.

T1: human TrkA ECD (human)
T1 chain: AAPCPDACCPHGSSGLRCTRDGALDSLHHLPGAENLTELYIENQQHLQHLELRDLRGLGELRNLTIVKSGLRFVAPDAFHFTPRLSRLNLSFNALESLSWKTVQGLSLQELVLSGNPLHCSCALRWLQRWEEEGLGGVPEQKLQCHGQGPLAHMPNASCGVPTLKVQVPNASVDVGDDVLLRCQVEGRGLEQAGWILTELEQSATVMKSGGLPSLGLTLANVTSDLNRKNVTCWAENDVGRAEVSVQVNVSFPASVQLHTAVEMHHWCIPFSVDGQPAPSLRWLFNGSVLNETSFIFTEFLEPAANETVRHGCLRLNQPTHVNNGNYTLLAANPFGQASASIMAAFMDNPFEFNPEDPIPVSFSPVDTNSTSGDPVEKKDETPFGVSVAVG

B1: Chi70D3A6 (antibody, V domains shown)
VH: EVKLVESGGDLVKPGGSLKLSCTASGFTFTYYAMSWVRQTPEKRLEWVATISGGGDTYYLDSVKGRFTISRDNAGNILYLQMSSLRSEDTAMYYCARGVGGNFFDYWGQGSTLTVSS
VL: QIVLTQSPAIMSASPGEKVTISCSASSSVSYMYWYQQKPGSSPKPFIYRTSNLASGVPSRFSGSGSGTSYSLTVSTMEAEDAATYYCQLYHSYTPITFGAGTKLELK
B2: Chi99H4D5 (antibody, V domains shown)
VH: B1 VH with D10G, T23A, T30S, M34I, V37L, T50S, G54N, G75R, F103Y, S111T
VL: B1 VL with Q1D, L4M, F46L, S59A, V74I, L89Q, E105D
B3: Hu70D3A6-V12 (antibody, V domains shown)
VH: EVQLVESGGGLVKPGGSLRLSCAASGFTFTYYAMSWVRQAPGKGLEWVSSISGGGDVYYADSVKGRFTISRDNAKNTLYLQMNSLRAEDTAVYYCARGVGGNYFDYWGQGTLVTVSS
VL: DIQMTQSPSSLSASVGDRVTITCSASSSVSYMYWYQQKPGKAPKPLIYRTSNLASGVPSRFSGSGSGTDFTLTISSLQPEDFATYYCQLYHSYTPITFGQGTKLEIK
B4: Hu99H4D5-V6 (antibody, V domains shown)
VH: B3 VH with T30S, M34I
VL: B3 VL with L89Q

Columns and labels:
human TrkA ECD [1] = biological target: T1, human TrkA ECD; experiment: BLI
human TrkA ECD [2] = biological target: T1, human TrkA ECD; experiment: BLI
TrkA (cell surface) = TrkA (cell surface) (human); experiment: FACS
TrkA (cell surface) (human), sequence (B2R6T5 whole entry): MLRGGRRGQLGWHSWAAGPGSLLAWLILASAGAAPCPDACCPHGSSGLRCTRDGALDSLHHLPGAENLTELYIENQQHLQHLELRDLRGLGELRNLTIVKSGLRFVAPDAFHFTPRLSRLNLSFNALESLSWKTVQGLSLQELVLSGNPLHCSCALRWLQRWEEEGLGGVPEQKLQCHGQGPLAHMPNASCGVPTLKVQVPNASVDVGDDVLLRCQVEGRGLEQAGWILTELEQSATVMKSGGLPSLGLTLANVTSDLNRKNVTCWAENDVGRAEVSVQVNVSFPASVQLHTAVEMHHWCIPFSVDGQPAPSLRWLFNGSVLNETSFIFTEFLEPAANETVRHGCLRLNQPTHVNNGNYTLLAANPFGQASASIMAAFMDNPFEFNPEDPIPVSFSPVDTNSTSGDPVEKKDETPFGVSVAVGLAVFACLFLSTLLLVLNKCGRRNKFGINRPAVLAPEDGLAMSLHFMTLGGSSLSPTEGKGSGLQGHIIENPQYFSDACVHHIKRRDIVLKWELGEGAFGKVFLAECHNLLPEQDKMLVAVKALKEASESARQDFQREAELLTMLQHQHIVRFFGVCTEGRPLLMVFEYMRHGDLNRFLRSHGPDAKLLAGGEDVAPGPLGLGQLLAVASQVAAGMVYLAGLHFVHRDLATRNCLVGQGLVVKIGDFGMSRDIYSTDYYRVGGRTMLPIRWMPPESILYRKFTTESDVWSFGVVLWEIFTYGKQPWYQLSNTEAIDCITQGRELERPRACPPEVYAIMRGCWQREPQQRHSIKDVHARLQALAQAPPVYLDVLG

Binder | Kd (human TrkA ECD [1]) [nM] | Kd (human TrkA ECD [2]) [nM] | EC50 (TrkA (cell surface)) [nM]
B1 | 0.771 |  | 
B2 | 1.3 |  | 
B3 |  | 0.591 | ~0.289
B4 |  | 0.753 | ~0.362
